For assay [1], the target named is T1, human IL-23 (IL-23-His-Biotin) (human, UniProt Q9NPF7 20-189; P29460 23-328, biotin label, site not stated).
T1 construct: Akesobio lot 20161209; His-tagged and biotinylated
T1 sequence (looked up) 1: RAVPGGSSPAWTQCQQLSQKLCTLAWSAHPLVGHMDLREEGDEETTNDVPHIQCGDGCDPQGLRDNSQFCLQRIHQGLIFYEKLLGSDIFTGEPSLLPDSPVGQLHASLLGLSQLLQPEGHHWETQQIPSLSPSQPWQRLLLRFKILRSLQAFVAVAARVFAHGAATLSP
T1 sequence (looked up) 2: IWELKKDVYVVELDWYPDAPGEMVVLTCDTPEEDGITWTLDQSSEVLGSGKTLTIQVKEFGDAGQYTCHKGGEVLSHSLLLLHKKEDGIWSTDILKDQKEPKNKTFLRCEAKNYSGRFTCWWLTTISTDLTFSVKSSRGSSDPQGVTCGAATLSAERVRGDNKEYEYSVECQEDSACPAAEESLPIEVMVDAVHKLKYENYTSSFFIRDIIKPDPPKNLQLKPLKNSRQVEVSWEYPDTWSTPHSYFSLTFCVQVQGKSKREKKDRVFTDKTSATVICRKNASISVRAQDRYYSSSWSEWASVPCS
The experiment in a line: FACS competition, IL-23-His-Biotin 2 µg/mL on 293T-IL-12Rβ1&IL-23R cells; antibody 3.33 µg/mL. Here is the method:
(§1) 200 μL of 1% PBSA was added into each sample, and the mixture was centrifuged at 700×g for 5 min to discard the supernatant. According to experiment design, correspondingly diluted antibody (highest final concentration of 30 μg/mL, 3-fold dilution, 8 concentrations in total) and human IL-23 (IL-23-His-Biotin, Akesobio, 20161209) (final concentration of 2 μg/mL) were mixed at a ratio of 1:1, and a blank control was set. The mixture of antibody and human IL23 was incubated on ice for 30 min and then added to the cell precipitate at 100 μL/sample. The resulting mixture was well mixed and incubated on ice for 60 min. 200 μL of 1% PBSA was added, and the mixture was centrifuged at 700×g for 5 min to discard the supernatant, and then washed twice. FITC Steptavidin (Biolegend, Cat. No.: 405202) was diluted at a ratio of 1:500 and added to each tube at 100 μL. The mixture was well mixed and incubated on ice for 40 min in the absence of light. 200 μL of 1% PBSA was added, and the mixture was centrifuged at 700×g for 5 min to discard the supernatant, and then washed twice. 1% PBSA was added at 200 μL/tube, and the cells were resuspended and transferred to a flow cytometry tube for testing.

For assay [2], the target named is T1, human IL-23 (IL-23-His-Biotin). The experiment in a line: FACS competition, IL-23-His-Biotin 2 µg/mL on 293T-IL-12Rβ1&IL-23R cells; antibody 1.11 µg/mL. The procedure: as §1
For assay [3] the target is unchanged. The experiment in a line: FACS competition, IL-23-His-Biotin 2 µg/mL on 293T-IL-12Rβ1&IL-23R cells. Here is the method: as §1
Assay [4] has as its target T2, Human IL12 (His Tag) (human, UniProt P29459 23-219; P29460 23-328).
T2 construct: Bought His-tagged heterodimer
T2 sequence (looked up) 1: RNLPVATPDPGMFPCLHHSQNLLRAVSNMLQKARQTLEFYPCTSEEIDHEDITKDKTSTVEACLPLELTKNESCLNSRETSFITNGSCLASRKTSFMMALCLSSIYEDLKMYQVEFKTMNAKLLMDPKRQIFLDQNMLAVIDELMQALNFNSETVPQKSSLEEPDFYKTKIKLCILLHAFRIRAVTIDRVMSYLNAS
T2 sequence (looked up) 2: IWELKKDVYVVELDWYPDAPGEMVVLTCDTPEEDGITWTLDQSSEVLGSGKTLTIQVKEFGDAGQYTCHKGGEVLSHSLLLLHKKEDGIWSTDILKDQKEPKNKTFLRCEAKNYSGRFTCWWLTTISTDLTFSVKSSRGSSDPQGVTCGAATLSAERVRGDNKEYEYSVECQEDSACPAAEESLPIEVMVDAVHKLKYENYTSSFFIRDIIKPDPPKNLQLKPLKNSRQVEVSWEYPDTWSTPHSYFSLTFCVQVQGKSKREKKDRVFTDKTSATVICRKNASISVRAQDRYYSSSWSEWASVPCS
The experiment in a line: FACS competition, IL-12-His 20 nM on 293T-IL-12Rβ1&IL-23R cells; antibody 0.04 µg/mL. The procedure:
(§2) 200 μL of 1% PBSA was added into each sample, and the mixture was centrifuged at 700×g for 5 min to discard the supernatant. According to experiment design, correspondingly diluted antibody (highest final concentration of 30 μg/mL, 3-fold dilution, 8 concentrations in total) and human IL-12 (Sino Biological, Cat. No.: CT-050-H08H-20) (final concentration of 20 nM) were mixed at a ratio of 1:1, and a blank control was set. The mixture of antibody and human IL12 was incubated on ice for 30 min and then added to the cell precipitate at 100 μL/sample. The resulting mixture was well mixed and incubated on ice for 60 min 200 μL of 1% PBSA was added, and the mixture was centrifuged at 700×g for 5 min to discard the supernatant, and then washed twice. Alexa Fluor® 488 anti-His tag antibody (Biolegend, Cat. No.: 652509) was diluted at a ratio of 1:400 and added to each tube at 100 μL. The mixture was well mixed and incubated on ice for 40 min in the absence of light. 200 μL of 1% PBSA was added, and the mixture was centrifuged at 700×g for 5 min to discard the supernatant, and then washed twice. 1% PBSA was added at 200 μL/tube, and the cells were resuspended and transferred to a flow cytometry tube for testing.

For assay [5], the target named is T2, Human IL12 (His Tag). Put plainly: FACS competition, IL-12-His 20 nM on 293T-IL-12Rβ1&IL-23R cells; antibody 0.01 µg/mL. The procedure:
as §2

The target in assay [6] is T1, human IL-23 (IL-23-His-Biotin). Put plainly: FACS competition, IL-23-His-Biotin 2 µg/mL on 293T-IL-12Rβ1&IL-23R cells; antibody 0.12 µg/mL. Here is the method: as §1
For assay [7] the target is unchanged. Put plainly: FACS competition, IL-23-His-Biotin 2 µg/mL on 293T-IL-12Rβ1&IL-23R cells; antibody 10 µg/mL. The procedure: as §1
Assay [8] addresses T2, Human IL12 (His Tag). Put plainly: FACS competition, IL-12-His 20 nM on 293T-IL-12Rβ1&IL-23R cells; antibody 30 µg/mL. Here is the method: as §2
In assay [9] the target is T2, Human IL12 (His Tag). Put plainly: FACS competition, IL-12-His 20 nM on 293T-IL-12Rβ1&IL-23R cells; antibody 10 µg/mL. Here is the method:
as §2

B1: H5L10 (antibody, human IgG1, kappa, V domains shown)
VH: EVQLVQSGAEVKKPGESLKISCQSSGYSFTTYWIGWVRQMPGQGLEWIGIMSPVDSDIRYNPMFRGQVTMSVDKSSSTAYLQWSSLKASDTAMYYCARRRPGQGYFDFWGQGTMVTVSS
VL: EIVLTQSPATLSASPGERATISCRASQSVGSWLAWYQQKPGQAPRSLIYAASNLQSGIPARFSGSGSGTDFTLTISSLEPEDFAVYYCQQYNIYPYTFGQGTRLEIKR
notes: human IgG1 / kappa constant regions; also called humanized antibody H5L10
Consider B1, for which the MFI in [1] was 15.7 MFI; in [2], 81.6 MFI; in assay [4], 154 MFI; in assay [5] it was 163 MFI; in [6], 221 MFI; in assay [7], 12.7 MFI. In addition, the MFI is 31.6 MFI in assay [8] and 34.1 MFI in assay [9]. Further, the EC50 in [3] amounted to 0.7 µg/mL.

B2: H5L9 (antibody, human IgG1, kappa, V domains shown)
VH: EVQLVQSGAEVKKPGESLKISCQSSGYSFTTYWIGWVRQMPGQGLEWIGIMSPVDSDIRYNPMFRGQVTMSVDKSSSTAYLQWSSLKASDTAMYYCARRRPGQGYFDFWGQGTMVTVSS
VL: DIQMTQSPSSLSASVGDRVTITCKASQNVGSWLAWYQQKPGKAPKSLIYSASSRQSGVPSRFSGSGSGTDFTLTISSLQPEDFATYYCQQYDIYPFTFGQGTKLEIKR
notes: human IgG1 (P01857) / kappa (P01834) constant regions; also called humanized antibody H5L9
For the molecule B2, the MFI in assay [1] is 153 MFI; in [2], 184 MFI; in assay [4] it was 158 MFI; in [5], 169 MFI; in [6], 217 MFI; in assay [7], 136 MFI. In addition, the MFI in [8] was determined as 117 MFI; in assay [9], 134 MFI. The same molecule displayed an EC50 in assay [3] of 4.25 µg/mL.

B3: H5L14 (antibody, human IgG1, kappa, V domains shown)
VH: EVQLVQSGAEVKKPGESLKISCQSSGYSFTTYWIGWVRQMPGQGLEWIGIMSPVDSDIRYNPMFRGQVTMSVDKSSSTAYLQWSSLKASDTAMYYCARRRPGQGYFDFWGQGTMVTVSS
VL: EIVLTQSPATLSASPGERATISCRASQSVSSWLAWYQQKPGQAPRSLIYAASNLQSGIPARFSGSGSGTDFTLTISSLEPEDFAVYYCQQYNIYPFTFGQGTRLEIKR
notes: human IgG1 / kappa constant regions; also called humanized antibody H5L14
With B3, the MFI in assay [1] stood at 23.6 MFI; in assay [2] it was 95.6 MFI; in assay [4], 155 MFI; in assay [5], 149 MFI; in assay [6], 203 MFI; in assay [7] it was 16.7 MFI. The results for the MFI in [8] and in [9] were 34.9 MFI and 46.3 MFI, respectively. Further, a half-maximal response in assay [3] (EC50) required 0.881 µg/mL.

B4: H5L12 (antibody, human IgG1, kappa, V domains shown)
VH: EVQLVQSGAEVKKPGESLKISCQSSGYSFTTYWIGWVRQMPGQGLEWIGIMSPVDSDIRYNPMFRGQVTMSVDKSSSTAYLQWSSLKASDTAMYYCARRRPGQGYFDFWGQGTMVTVSS
VL: EIVLTQSPATLSASPGERATISCRASQSVSSWLAWYQQKPGQAPRSLIYAASNRQSGIPARFSGSGSGTDFTLTISSLEPEDFAVYYCQQYNIYPYTFGQGTRLEIKR
notes: human IgG1 / kappa constant regions; also called humanized antibody H5L12
As to B4, the MFI in assay [1] was found to be 15.8 MFI; in assay [2], 88.5 MFI; in assay [4], 149 MFI; in assay [5], 161 MFI; in assay [6] it was 211 MFI; in [7] it was 12.7 MFI. For the same molecule, the figures for the MFI in assay [8] and in assay [9] were 31.8 MFI and 32.4 MFI, respectively. This molecule had a 50% effective concentration (EC50) in [3] of 0.775 µg/mL.

B5: H5L11 (antibody, human IgG1, kappa, V domains shown)
VH: EVQLVQSGAEVKKPGESLKISCQSSGYSFTTYWIGWVRQMPGQGLEWIGIMSPVDSDIRYNPMFRGQVTMSVDKSSSTAYLQWSSLKASDTAMYYCARRRPGQGYFDFWGQGTMVTVSS
VL: EIVLTQSPATLSASPGERATISCRASQSVSSWLAWYQQKPGQAPRSLIYSASNLQSGIPARFSGSGSGTDFTLTISSLEPEDFAVYYCQQYNIYPYTFGQGTRLEIKR
notes: human IgG1 / kappa constant regions; also called humanized antibody H5L11
For B5, the MFI stood at 20.2 MFI in [1]; 97.6 MFI in assay [2]; 151 MFI in [4]; 166 MFI in [5]; 219 MFI in assay [6]; 14.5 MFI in [7]. Also, the MFI in assay [8] worked out at 33 MFI; in [9], 33.9 MFI. This molecule yielded an EC50 in assay [3] of 0.864 µg/mL.

B6: ustekinumab (antibody, V domains shown)
VH: EVQLVQSGAEVKKPGESLKISCKGSGYSFTTYWLGWVRQMPGKGLDWIGIMSPVDSDIRYSPSFQGQVTMSVDKSITTAYLQWNSLKASDTAMYYCARRRPGQGYFDFWGQGTLVTVSS
VL: DIQMTQSPSSLSASVGDRVTITCRASQGISSWLAWYQQKPEKAPKSLIYAASSLQSGVPSRFSGSGSGTDFTLTISSLQPEDFATYYCQQYNIYPYTFGQGTKLEIK
As for B6, the MFI in [1] turned out to be 13.8 MFI; in assay [2], 121 MFI; in [4], 150 MFI; in [5], 160 MFI; in [6], 211 MFI; in [7], 11.5 MFI. Besides, the MFI in [8] is 28.7 MFI; in assay [9], 31 MFI. In assay [3], the EC50 came out at 1.16 µg/mL.

The record behind these values is patent publication US20220298235A1 (AKESO BIOPHARMA, published 2022).
